According to the supplement of paper PMC10065799, “High-throughput profiling of sequence recognition by tyrosine kinases and SH2 domains using bacterial peptide display” (eLife, 2023):

Key:
[1] = molecular target: SHP2-C SH2; test: SH2 binding enrichment of the phosphorylated peptide, bacterial display (enrichment ratio); higher = better substrate or ligand; peptides without Tyr show the background
[2] = molecular target: c-Src SH2; test: as above
[3] = molecular target: Grb2 SH2 (UniProt P62993); test: as above
[4] = molecular target: FGFR3 (UniProt P22607); test: phosphorylation enrichment, bacterial display (enrichment ratio); higher = better substrate or ligand; peptides without Tyr show the background
[5] = test system: AncSZ; test: as above
[6] = test system: Fer (mouse); test: as above
[7] = molecular target: EPHB1 (UniProt P54762); test: as above
EPHB1, sequence (P54762 whole entry, looked up): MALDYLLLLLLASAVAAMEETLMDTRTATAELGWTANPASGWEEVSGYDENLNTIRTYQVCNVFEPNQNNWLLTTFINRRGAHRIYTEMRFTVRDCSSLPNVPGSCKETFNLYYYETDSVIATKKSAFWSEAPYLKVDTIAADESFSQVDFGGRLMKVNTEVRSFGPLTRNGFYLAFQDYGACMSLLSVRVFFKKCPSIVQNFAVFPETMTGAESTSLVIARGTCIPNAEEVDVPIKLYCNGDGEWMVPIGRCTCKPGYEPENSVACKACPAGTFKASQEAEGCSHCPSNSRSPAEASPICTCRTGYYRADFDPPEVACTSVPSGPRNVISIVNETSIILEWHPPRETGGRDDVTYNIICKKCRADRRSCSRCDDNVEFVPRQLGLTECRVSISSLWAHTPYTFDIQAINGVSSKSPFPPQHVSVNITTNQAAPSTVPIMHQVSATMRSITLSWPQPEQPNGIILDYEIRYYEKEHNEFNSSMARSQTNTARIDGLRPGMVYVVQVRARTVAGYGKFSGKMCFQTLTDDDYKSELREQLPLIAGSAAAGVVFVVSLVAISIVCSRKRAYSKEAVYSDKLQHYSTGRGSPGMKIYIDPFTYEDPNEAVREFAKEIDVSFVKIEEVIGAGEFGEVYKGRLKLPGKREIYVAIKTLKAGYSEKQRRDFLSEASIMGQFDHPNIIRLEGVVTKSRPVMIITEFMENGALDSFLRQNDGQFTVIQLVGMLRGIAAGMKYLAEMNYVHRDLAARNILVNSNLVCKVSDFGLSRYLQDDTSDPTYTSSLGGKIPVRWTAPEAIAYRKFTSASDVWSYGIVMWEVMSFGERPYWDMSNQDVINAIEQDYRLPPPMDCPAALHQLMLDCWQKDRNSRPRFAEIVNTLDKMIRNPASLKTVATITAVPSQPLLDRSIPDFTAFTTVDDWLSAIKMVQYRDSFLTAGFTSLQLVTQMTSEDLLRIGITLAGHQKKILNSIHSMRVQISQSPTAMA

[8] = molecular target: Fes (UniProt P07332); test: as above
[9] = molecular target: Fyn (UniProt P06241); test: as above
Fyn, sequence (P06241 whole entry, looked up): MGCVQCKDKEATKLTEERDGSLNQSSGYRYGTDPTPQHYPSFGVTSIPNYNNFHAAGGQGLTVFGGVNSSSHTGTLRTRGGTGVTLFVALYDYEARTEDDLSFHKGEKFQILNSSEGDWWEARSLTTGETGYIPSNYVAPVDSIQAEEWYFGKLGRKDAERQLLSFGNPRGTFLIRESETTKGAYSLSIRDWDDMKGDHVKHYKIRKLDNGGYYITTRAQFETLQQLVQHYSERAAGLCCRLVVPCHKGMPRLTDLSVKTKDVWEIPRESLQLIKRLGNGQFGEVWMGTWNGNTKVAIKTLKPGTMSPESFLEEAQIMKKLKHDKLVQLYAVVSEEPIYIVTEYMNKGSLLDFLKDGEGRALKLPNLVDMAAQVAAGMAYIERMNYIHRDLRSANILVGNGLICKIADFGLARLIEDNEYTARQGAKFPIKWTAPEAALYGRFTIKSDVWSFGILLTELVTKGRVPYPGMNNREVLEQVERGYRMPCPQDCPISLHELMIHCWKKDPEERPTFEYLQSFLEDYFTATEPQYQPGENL

[10] = molecular target: MERTK (UniProt Q12866); test: as above
MERTK, sequence (Q12866 whole entry, looked up): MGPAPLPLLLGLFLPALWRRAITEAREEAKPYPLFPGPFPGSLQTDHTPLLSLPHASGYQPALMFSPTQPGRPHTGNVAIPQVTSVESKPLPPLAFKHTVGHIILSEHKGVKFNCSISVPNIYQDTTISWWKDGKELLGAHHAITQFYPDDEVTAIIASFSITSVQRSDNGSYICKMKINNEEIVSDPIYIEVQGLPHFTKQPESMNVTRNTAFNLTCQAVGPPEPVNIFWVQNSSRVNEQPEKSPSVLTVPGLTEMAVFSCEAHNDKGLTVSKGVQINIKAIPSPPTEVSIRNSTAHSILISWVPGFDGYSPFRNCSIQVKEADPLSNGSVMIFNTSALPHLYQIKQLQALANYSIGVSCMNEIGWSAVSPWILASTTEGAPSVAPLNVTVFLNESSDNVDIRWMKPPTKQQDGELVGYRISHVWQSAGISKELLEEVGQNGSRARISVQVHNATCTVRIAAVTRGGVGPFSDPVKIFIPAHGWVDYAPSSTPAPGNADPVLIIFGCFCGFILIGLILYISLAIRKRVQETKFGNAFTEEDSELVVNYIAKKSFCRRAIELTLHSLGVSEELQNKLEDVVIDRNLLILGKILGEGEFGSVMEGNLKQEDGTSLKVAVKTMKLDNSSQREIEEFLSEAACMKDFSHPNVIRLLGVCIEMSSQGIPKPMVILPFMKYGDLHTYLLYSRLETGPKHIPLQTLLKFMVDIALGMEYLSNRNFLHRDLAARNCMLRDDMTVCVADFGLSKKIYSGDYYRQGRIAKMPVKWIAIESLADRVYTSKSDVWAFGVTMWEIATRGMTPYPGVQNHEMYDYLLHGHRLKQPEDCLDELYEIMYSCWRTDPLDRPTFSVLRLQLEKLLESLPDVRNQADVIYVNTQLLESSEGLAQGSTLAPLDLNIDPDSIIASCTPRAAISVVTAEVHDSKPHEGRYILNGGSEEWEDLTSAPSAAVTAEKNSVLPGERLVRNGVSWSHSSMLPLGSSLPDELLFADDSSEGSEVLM

[11] = molecular target: FGFR1 (UniProt P11362); test: as above
FGFR1, sequence (P11362 whole entry, looked up): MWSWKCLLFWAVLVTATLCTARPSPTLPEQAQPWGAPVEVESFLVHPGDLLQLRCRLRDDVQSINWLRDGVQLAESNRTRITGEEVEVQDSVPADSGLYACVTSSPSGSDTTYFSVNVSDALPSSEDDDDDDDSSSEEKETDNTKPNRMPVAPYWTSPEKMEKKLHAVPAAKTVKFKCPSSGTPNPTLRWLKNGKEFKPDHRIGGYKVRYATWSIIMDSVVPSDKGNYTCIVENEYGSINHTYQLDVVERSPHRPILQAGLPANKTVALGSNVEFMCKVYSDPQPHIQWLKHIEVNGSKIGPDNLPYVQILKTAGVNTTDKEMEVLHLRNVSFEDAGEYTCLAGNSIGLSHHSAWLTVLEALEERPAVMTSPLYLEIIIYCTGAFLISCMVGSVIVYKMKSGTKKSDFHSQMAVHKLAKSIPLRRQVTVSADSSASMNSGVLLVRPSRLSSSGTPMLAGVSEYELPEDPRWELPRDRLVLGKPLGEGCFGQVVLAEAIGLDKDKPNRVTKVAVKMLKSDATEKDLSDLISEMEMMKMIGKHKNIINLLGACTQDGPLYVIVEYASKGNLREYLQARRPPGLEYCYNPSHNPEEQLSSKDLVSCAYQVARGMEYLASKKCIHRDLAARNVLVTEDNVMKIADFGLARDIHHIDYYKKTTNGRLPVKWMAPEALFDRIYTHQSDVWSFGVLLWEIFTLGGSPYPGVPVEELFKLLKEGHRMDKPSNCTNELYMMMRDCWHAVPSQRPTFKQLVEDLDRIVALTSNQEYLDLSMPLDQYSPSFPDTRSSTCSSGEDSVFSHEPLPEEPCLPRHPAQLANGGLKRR

[12] = test system: c-Src; test: as above
[13] = molecular target: Hck (UniProt P08631); test: as above
Hck, sequence (P08631 whole entry, looked up): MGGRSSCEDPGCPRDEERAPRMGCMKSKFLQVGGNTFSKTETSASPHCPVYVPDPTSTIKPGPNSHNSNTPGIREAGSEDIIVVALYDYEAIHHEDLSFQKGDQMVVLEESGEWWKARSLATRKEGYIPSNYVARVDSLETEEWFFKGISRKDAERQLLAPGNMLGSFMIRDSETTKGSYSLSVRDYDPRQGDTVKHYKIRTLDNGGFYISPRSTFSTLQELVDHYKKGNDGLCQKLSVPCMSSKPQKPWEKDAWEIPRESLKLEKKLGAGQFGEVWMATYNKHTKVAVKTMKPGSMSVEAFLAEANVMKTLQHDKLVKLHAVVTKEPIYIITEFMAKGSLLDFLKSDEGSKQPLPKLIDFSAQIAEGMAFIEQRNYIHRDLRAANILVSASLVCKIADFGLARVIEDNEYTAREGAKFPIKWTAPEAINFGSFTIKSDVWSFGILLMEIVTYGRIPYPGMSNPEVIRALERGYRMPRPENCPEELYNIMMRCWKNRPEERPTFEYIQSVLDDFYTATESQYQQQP

[14] = test system: c-Abl (mouse); test: as above
[15] = molecular target: Jak2 (UniProt O60674); test: as above
Jak2, sequence (O60674 whole entry, looked up): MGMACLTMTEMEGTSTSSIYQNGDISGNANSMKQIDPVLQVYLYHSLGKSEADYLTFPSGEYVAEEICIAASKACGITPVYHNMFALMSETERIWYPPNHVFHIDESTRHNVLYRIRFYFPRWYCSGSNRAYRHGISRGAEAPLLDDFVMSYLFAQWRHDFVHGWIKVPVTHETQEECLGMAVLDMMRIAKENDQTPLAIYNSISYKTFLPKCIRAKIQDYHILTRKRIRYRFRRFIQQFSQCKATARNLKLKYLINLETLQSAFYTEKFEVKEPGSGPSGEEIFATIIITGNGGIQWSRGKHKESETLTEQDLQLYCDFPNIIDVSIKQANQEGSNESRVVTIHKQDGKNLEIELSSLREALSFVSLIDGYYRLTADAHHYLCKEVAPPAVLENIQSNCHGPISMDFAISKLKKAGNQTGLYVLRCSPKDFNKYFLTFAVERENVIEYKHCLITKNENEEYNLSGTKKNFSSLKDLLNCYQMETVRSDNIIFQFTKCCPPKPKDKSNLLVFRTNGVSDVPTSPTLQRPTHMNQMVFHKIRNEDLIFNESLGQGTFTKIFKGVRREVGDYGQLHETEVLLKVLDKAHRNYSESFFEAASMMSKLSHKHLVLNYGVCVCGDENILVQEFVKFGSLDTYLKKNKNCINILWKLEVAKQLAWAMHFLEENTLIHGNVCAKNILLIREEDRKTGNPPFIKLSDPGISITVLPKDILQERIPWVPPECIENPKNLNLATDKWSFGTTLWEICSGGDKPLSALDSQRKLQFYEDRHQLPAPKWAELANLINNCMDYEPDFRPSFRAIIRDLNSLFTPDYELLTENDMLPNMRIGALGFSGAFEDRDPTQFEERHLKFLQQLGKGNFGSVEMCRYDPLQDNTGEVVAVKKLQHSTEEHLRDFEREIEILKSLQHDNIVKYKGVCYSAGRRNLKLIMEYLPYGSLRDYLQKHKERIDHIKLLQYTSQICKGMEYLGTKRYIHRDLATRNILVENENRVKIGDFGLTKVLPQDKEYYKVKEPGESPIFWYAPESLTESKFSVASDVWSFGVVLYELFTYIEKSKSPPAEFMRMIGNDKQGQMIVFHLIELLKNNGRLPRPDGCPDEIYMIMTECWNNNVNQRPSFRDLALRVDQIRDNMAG

[16] = molecular target: EPHB2 (UniProt P29323); test: as above
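Throughout, for SH2 binding enrichment of the phosphorylated peptide, bacterial display: peptide library displayed on the E. coli surface as eCPX fusions, selected cells deep-sequenced, score is each peptide's frequency after selection divided by its frequency in the input.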
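Throughout, for phosphorylation enrichment, bacterial display: 11-residue human phosphosite peptides and single-mutation variants displayed on the E. coli surface, counted by deep sequencing, each peptide's frequency after selection divided by its frequency in the unselected input library; frequency after pTyr selection over input frequency; kinase dosed for 20-30% of maximal phosphorylation in three min.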

SH2 binding enrichment [1]	SH2 binding enrichment [2]	SH2 binding enrichment [3]	Sequence	phosphorylation enrichment [4]	phosphorylation enrichment [5]	phosphorylation enrichment [6]	phosphorylation enrichment [7]	phosphorylation enrichment [8]	phosphorylation enrichment [9]	phosphorylation enrichment [10]	phosphorylation enrichment [11]	phosphorylation enrichment [12]	phosphorylation enrichment [13]	phosphorylation enrichment [14]	phosphorylation enrichment [15]	phosphorylation enrichment [16]
0.96	0.584	1.08	TFEFRYLEDRD [CNOT3_Y746_YF]	0.826	1.35	0.606	0.676	1.37	0.686	0.398	0.599	0.591	0.67	0.762	1.17	0.756
0.723	0.556	0.993	ADNSAYLMGLN [MYH7_Y386_K383N]	0.61	0.865	0.497	0.629	0.932	0.514	0.473	0.512	0.587	0.603	0.738	1.11	0.566
0.572	0.58	0.699	SGTFQYIIAKF [FOXL2_Y83_I80T_YF]	0.793	1.09	0.473	0.448	1.27	0.532	0.393	0.494	0.366	0.418	0.878	0.953	0.491
0.643	0.551	0.732	GPGLVYGVANK [FLNB_Y1833]	0.483	0.531	0.51	0.421	0.689	1.59	0.422	0.648	2.83	3.44	0.545	0.718	0.405
0.845	0.599	0.844	AGLVQYFMEHH [PTPN11_Y80_E76G_YF]	0.782	0.955	0.474	0.655	1.12	0.513	0.456	0.538	0.452	0.565	0.741	0.962	0.592
1.05	0.777	1.02	SHKELYKWFTS [DYNC1H1_Y3051_E3048K]	0.501	0.634	0.574	0.544	0.812	0.513	0.66	0.897	0.576	0.566	0.566	0.717	0.439
0.64	0.373	0.883	SSEFHCVGGFF [CTSC_Y347_Y347C_YF]	0.619	0.997	0.521	0.564	1.05	0.44	0.412	0.466	0.458	0.499	0.735	0.858	0.5
1.31	1.97	1.25	GHLYAYDWIRI [BEST1_Y227_S231R]	2.73	1.44	15.8	3.44	3.03	1.84	9.27	4.35	2.28	3.12	0.857	0.941	2.42
0.709	0.604	0.886	KFLENYFDLKK [MMP3_Y41_YF]	1.75	1.06	0.467	1.94	1.27	0.448	0.446	2.51	0.499	0.543	0.816	1.26	0.751
0.99	0.594	1.12	HPWPQYTTRAP [FNDC1_Y1281]	0.54	0.628	0.454	0.316	0.603	0.554	0.546	0.421	0.561	0.572	0.697	0.846	0.594
1.25	1.73	1.14	TPSGNYVACGG [GNB1_Y111_A106T]	0.436	0.614	0.415	0.771	0.8	0.447	0.516	0.555	0.783	0.488	0.677	0.602	0.704
1.28	0.644	0.951	ERSMSYCDESR [SMG1_Y143_S144C]	0.551	0.788	0.474	0.435	0.77	0.422	0.43	0.475	0.491	0.402	0.704	0.728	0.496
1.1	0.53	0.89	FLQEIYNSNNQ [FGG_Y140_YF]	0.883	1.07	0.63	0.79	1.08	1.46	0.514	0.65	1.64	1.69	0.713	0.907	0.602
0.729	4.69	1.01	SLEKSYELLDG [ACTB_Y240_P243L]	0.963	1.16	0.705	0.575	1.16	0.533	0.555	0.508	0.52	0.595	0.956	1.25	0.584
1.05	0.671	1.08	KNNSIYVVANI [VNN1_Y134]	0.821	0.982	0.727	0.74	1.14	0.765	0.885	0.701	0.705	0.888	0.8	1.04	0.761
0.502	0.77	0.812	ASQEEYSAMRD [KRAS_Y64_G60S]	0.68	1.08	0.435	0.577	0.946	0.487	0.496	0.714	0.508	0.531	0.681	0.976	0.58
0.823	0.531	0.665	DAANNYARGHF [TUBA3E_Y103_S101N_YF]	0.403	0.698	0.431	0.382	0.652	0.425	0.544	0.422	0.468	0.426	1.06	0.391	0.626

The remaining lines, values behind:

Sequence	SH2 binding enrichment [1]	SH2 binding enrichment [2]	SH2 binding enrichment [3]	phosphorylation enrichment [4]	phosphorylation enrichment [5]	phosphorylation enrichment [6]	phosphorylation enrichment [7]	phosphorylation enrichment [8]	phosphorylation enrichment [9]	phosphorylation enrichment [10]	phosphorylation enrichment [11]	phosphorylation enrichment [12]	phosphorylation enrichment [13]	phosphorylation enrichment [14]	phosphorylation enrichment [15]	phosphorylation enrichment [16]
ASKEPYYVHCI [MYO1D_Y585_R588H]	0.889	0.685	0.924	1.36	0.953	0.506	1.96	0.974	0.482	0.636	1.89	0.576	0.554	0.627	0.755	1.21
QNTGDYFDLFG [PTPN11_Y62_YF]	0.689	0.409	0.795	23.3	8.28	0.753	23.3	1.49	1.26	3.03	26.8	1.56	1.3	1.48	11.6	20.4
EMFNPYFGLFE [NEDD4L_Y679_YF]	1.1	0.743	1.53	1.68	1.52	2.66	2.32	1.21	7.38	3.52	1.94	7.31	6.01	1.14	8.21	1.88
ISITPYPAILH [IFT80_Y588]	0.547	0.385	0.616	0.676	1.2	0.37	0.578	1.24	0.409	0.36	0.433	0.414	0.465	0.865	1.2	0.484
DKGTLYIAEQI [PLBD1_Y375_V377A]	0.54	0.44	0.664	0.666	0.763	0.372	0.565	0.887	0.459	0.346	0.441	0.383	0.447	0.65	0.743	0.446
GEEIKDMLWLS [OTC_Y55_Y55D]	0.584	0.501	0.807	0.566	0.913	0.428	0.448	1	0.475	0.425	0.475	0.361	0.446	0.672	0.822	0.462
DPLLTYLFPPK [LMNA_Y481_R482L]	1.19	0.574	0.991	2.62	2.2	0.481	0.992	1.08	1.8	0.772	4.35	3.12	0.87	0.836	2.79	0.781
ARTNEYKIIRS [INA_Y87_T92S]	0.859	0.514	1.06	0.406	0.435	0.33	0.394	0.563	0.406	0.407	0.282	0.407	0.316	0.337	0.454	0.372
EFFDGYWGFSV [ITGA2B_Y265_YF]	0.634	0.657	0.705	4.7	1.43	0.54	0.633	1.15	3.98	1.14	6.3	5.54	3.31	1.53	8.01	0.58
MGRVNYGAYIN [GLB1_Y485]	1.19	1.22	4.77	0.499	0.701	0.34	0.504	0.617	0.463	0.315	0.383	0.393	0.395	0.587	0.54	0.486
TTKGAYSLSIR [YES1_Y194]	0.434	0.792	1.36	0.395	0.656	0.383	0.369	0.681	0.406	0.548	0.49	0.567	0.445	0.669	0.614	0.414
GYIISYREEEQ	1.04	0.527	0.857	0.586	1.79	0.596	0.48	2.14	0.546	0.539	0.532	0.516	0.473	0.909	1.53	0.599
TEAEPYYCSLR [NPHS1_Y1138_R1140C]	0.73	1.22	0.893	1.47	1.81	1.8	1.5	1.5	4.22	2.78	1.49	3.96	4.2	1.18	1.4	1.43
LEAVSYSSPFA [RNLS_Y190_R193P_YF]	3.49	1.26	0.911	0.661	1.23	0.396	0.736	1.06	0.791	0.658	1.12	0.652	0.615	2.62	0.952	0.908
RNLLIYTEFGK [HGD_Y166_G161R]	0.194	0.457	0.94	0.945	1.4	0.827	2.86	1.22	8.15	5.3	0.583	4.93	5.2	2.48	0.997	1.12
KGNMFYENSFA [EGFR_Y113_R108K_YF]	1	2.98	19.5	0.535	0.76	1.8	0.503	0.705	0.412	0.484	0.332	0.45	0.449	0.645	0.751	0.463
